Experimental data as given in the domain aggregation screens of Martell et al. (2025).

Experiment: soluble fraction after stress (log2 fold change); higher = more stays soluble; pooled small domains, quantitative proteomics
Conditions: stress: 75 degC
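Also: 20 min heating vs room temperature control held 20 min.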

HMAPEKLVHELVGLSLRAGNLDLLAATLSAHKTVLSKESTAEYVKAGLAIEPNHLPLRVLAEQDLGWS
soluble fraction (log2): -1.17

HMAPFVIQQGQDVRLISKGPGFAVSNDGKALTNAAEGQLARARTANGQTVSGIARQGGIIEIA
soluble fraction (log2): -0.0321

HMAPGIGDSKYFSHIYEMKHIDTIIDNDKGDRLIEHFEIQDTPFIFTKHWTSAFGFSKRQQEIITDYLSYF
soluble fraction (log2): 0.12

HMAPGVHVEALLPYTAGSLVSQIREYGNVDAVEYRDTGILLQADVDERLAAQIMDQALEDPV
soluble fraction (log2): 0.0715

HMAPLADQIVDLLKEHDGFLPLHDNSSPEDIRATVGTSKKAFKQAIGGLFREKRIVIGPTGIRLIS
soluble fraction (log2): -0.694

HMAPLATIHVSSLSQKPFYLYGTFEDRRGNHLFFLEQIMGENKSIPVAMPSSAINPKIHASLTPPKG
soluble fraction (log2): -0.494

HMAPLQDENGDLTFSYNGKTYTVNVNSEEDRNSFAEDFNKENGKKFSWFKERAGLQHYVFYDTEM
soluble fraction (log2): -0.00699

HMAPLVTLEADGNGAVKLSNLAGHSIREVAGALGGAGLSLIPVGSGTSWKQNPAPGTVLHSGDTVTVYF
soluble fraction (log2): 0.177

HMAPPIQQQVESLMNSFAKIGVTVPMLESRLQHAMSAVTANELVMLRKIGASIRDGFATVAEQFPA
soluble fraction (log2): -1.14

HMAPPPPEGYIHRWIRESVMGFDDKKNLSARIREGFELVRAEEYPDYEAPTVMDGKHAGVIANGGLLLARF
soluble fraction (log2): -0.201

HMAPQQARAAKTRVKLLDAAATVVRRDGIQAMTLARVAEEAGVSKGGLLHHFGSKEELVTGMLEQ
soluble fraction (log2): -0.21

HMAPRASDALTERELDVLRVVADGASVAEAAEMLVVSRETVKKHLGNIYAKLGVHSKMQAVALLREEGV
soluble fraction (log2): -0.788

HMAPRKNIRLLRAAQDKAAAEGDHETVDAIRGQIAALIETLPVQYREEYLLQEKGRENGLKLAIENAAK
soluble fraction (log2): 0.663

HMAPSLQISLKQAIITAQQQHPGSKALNADFDGARGTPRYVIETLLPTGELRELTIDAQSGQVMEDHPDR
soluble fraction (log2): 0.234

HMAPSPEGAAILRESVESVARDQVDRVALTMTARGYTTAEIAAALMVDRSTISRRLYAMRDRYHAQQDNAQ
soluble fraction (log2): -0.526

HMAPSVNEVAWAQKIIDAHAEAAAAGKGLVVVDGKLIENLHVEEAKQLLSLSDAIAKNDASNG
soluble fraction (log2): 0.0645

HMAPTGTDRQTPHTRDELYLVLSGTGTFVNGDARHPFGPGDALFVPAGAEHRFEDFSDDFRTWVVFYGAEG
soluble fraction (log2): -0.163

HMAPVVAILTRQLPLPQAQQLAGQTALVRVVKGGPGNEAELEFAGQNIQVKLPPGRQLTAGEMVTVAFALS
soluble fraction (log2): -0.762

HMAQASEPMLALIRLKWWEEQINSPVKGDSLPLLSQLNSHISAGYLSRSQVTSLIQRWQDYA
soluble fraction (log2): -0.983

HMAQFNELLFELRQDRKMTQEDLAKVLFVTSGTISNYENGVHLPDIEKLISLADFFGVTTDYLLG
soluble fraction (log2): -0.189

HMAQLKYEQIKSYLQAEAVKPESATRMPTVRELMRRFNVSLVTVNRALSELEHAKVIVRRQGAGIVAAQ
soluble fraction (log2): -0.662

HMAQLPADMSRVKSADVSDAQLREFVQKAQASGQTETQLFREFSRRGMPTNEINILRSRMVGLQNN
soluble fraction (log2): 0.152

HMAQLPPTATARATSDVSGLTASAALRTLLEQGFVPQIHGSGKVSRQHPPAGTLLEPGSTIQLFLEPS
soluble fraction (log2): 0.261

HMAQLSDMLTYLRKRKGLSQQELANTLKISRSAIGMYETGKREPDLETLEVFADFYNVDMNTLTGKA
soluble fraction (log2): -0.245

HMAQNILPGQKNAIKSLATSAGFSQQELDSYLSQNYGKTLNNLSQKEGASLISGLQDGSIKKP
soluble fraction (log2): 0.988

HMAQPIPSGSDIREAREAAGMNLRDFARMVGGGAIGTWSHYETGKPIRVKSISPEVWQRVRDFILQHGK
soluble fraction (log2): -0.676

HMAQRAADEARTHEILGLLRQARAALDHGGTARAARLRASIAEKLPAAPALPAWFARQLEQVDSQLAELQD
soluble fraction (log2): -0.768

HMAQRFDLGDKLNPQSSEFEYLGTSSRTGVSTYRYKNVPTQLFFGRQIGDIVVGVRRGMITLTIYNL
soluble fraction (log2): 0.0868

HMAQSTALVNLAQAEINKRGLTQTEVQARLSEEGINVNSISPAEYPKYQKQILSILDQMQKEKQLSKEV
soluble fraction (log2): 0.287

HMAQVDAVQQVLQAFPALRSGQSQHLSQVVAALRQRGILTVGTKTTAWFAQWASVFQLLPLQVPNRIRYQS
soluble fraction (log2): 0.0672

HMARGRETILLVEDEPAVRGLVHATLRLHGYTVLEARHGIEALLTSTKFVGPIHLLLTDVVMPQMS
soluble fraction (log2): 0.0984

HMARHIHFEVHVQQAGRWSIHAQFGAGQREKAIEEAKKIEKTPGFDSVKVVKETYDSDLGNHQDTTIYRGP
soluble fraction (log2): -1.18

HMARKTIFHSLLGELEQRIGRLPAGTILPAEQALADEYGVSKPTLRRALAELAEHGLITKENGIGSVVI
soluble fraction (log2): -0.577

HMARLAGVDLPREKRIEIGLTYIYGIGLARSQEILKKAGINPDIRVKDLTDEQEQAIRNAMDGYIVEGDL
soluble fraction (log2): -1

HMARLQEVVVRVPVEDGQTLAAIYREAEVIERADEGTGVLLTVRIPAPLLGRLRRLEGVHVQP
soluble fraction (log2): -1.07

HMARRLELEDIPVDEVLFTASRNLVDAIEVMDPSRQAPMIQPWLKQALEWAVGALGFSKEDAVATLTSD
soluble fraction (log2): 0.157

HMASAAHYEGVKTEGESDNDVITRVLTATGVTAEKDDIFVVKSLIADGKYSYTAYVYDGSVWAAMD
soluble fraction (log2): -0.236

HMASALDVALNDFAEMRKKMRKPLTDRALALTLSELEKLAPGNDEKKIAILNQSIQRGWQGVFPLK
soluble fraction (log2): -0.336

HMASDEVPGAGFKWREDVLLRVMEANGIDKSNRDDFVRHAVNFDDDDNNYLKKAEIEAAAAAWVESQSPA
soluble fraction (log2): -0.696

HMASDLPTVTIMGKTFYTYVAKKGESFFGIANRFGWDPELLVKTNRELETPLDKGALIYYPVPKKPK
soluble fraction (log2): -1.32

HMASIATLTVKALGGASDVVIRDKDGRIIWADRLPAGQSHRVFGHAPFNVAASHASRVQLSLLGKDVGRV
soluble fraction (log2): -1.37

HMASISDRIRLLRAESHMTQEEFGRIFGISKPTVSFYEHGKSVPNDQIKTAIARYFGVSVDYLLGVTD
soluble fraction (log2): -2.14

HMASKTGTITATSLNVRSGAATTYSILGTLSNGKTVTIYEESNGWYKINYNGGYGWVSKTYVSTG
soluble fraction (log2): -1.53

HMASLASVAYETLRQALDNFQYVPGDRFSESEVGQQLGMSRTPVREALVRLQREGYISVLPKMGWVVNQ
soluble fraction (log2): -1.86

HMASMHDGVAARLRAMVFERELAPGEFIDERRLAQQWQISRTPLREALKVLAAEGLVELVPRRGARVV
soluble fraction (log2): -1.12

HMASPKEALWRSLAEEPDTWWDNRERKSQPGANPRSPDFKHKESGEALWIESRDTPTWVLETL
soluble fraction (log2): -0.196

HMASQEESVATYIQDYYRNPKTGESMVSDDMVEEFYKTHPEWEDQADGSKEGMEAVLDNFNEFFEINYG
soluble fraction (log2): 0.333

HMASSRPLAEGDFVRLRAGGATGRIESIKGQKATVQMGGLKVHAPLRDLLPVAEPIKQVSTASNT
soluble fraction (log2): -0.00256

HMASVAKHIRRLRTERHMTQGDLAEKLFVTRQTVSAWETGKAQPDLETLERIAVVLGVEVTELIYGAP
soluble fraction (log2): -0.707

HMASVVEQVQVSNDISLFRQQNSPYWQARFKVAGKWYTRTTKRTEQTQAAFRAAELRSEVQTKISQGIPLR
soluble fraction (log2): -2.56

HMATESYYVLKADVPAKTLVTQEMVEEIKVSKGGAPVNSIKIDNIKEKGVYTSIPLLKGDVLSASNTG
soluble fraction (log2): 0.131

HMATKVSSGATVRDVADLLGLSSAELIKKLMMMGEMATLTQTLTDESIKSIADEYDRKIEIVSAAE
soluble fraction (log2): -0.0786

HMATNVLEISTRNKNILIQDSLNLVESFYSKSDNQYWYKLVFKTKDDLNKFLQEVSEDENTITYKTSSI
soluble fraction (log2): -0.359

HMATPEINNLGRLRNAINQSNVNWHQIIKRLQNEYPNNWRQILIAIDRHDLLFRYDVENYIKYG
soluble fraction (log2): -2.31

HMATPIAGTKYTLNNTPVYGTEKGPSIGKRSGIYYTWDATVRNGRIRMTNSPARVGVPWQVSFWVEVNKL
soluble fraction (log2): -2.9

HMATPRLAIVPQSAAGRRLDAVLAELFPEYSRSRLSAWIKTGDVMVDGAAPRGRDPVRGGEEITLTAVQ
soluble fraction (log2): -0.183

HMATPTEHQLQAQARAVVEKAERLLDRASADDREDIINLIEKITDALAAEDFTAVKAPLAELSDILFYLE
soluble fraction (log2): -0.104

HMATPTMEDYIEVIYSLVKTKGYARSADIAEKLEVYPSTVTKMLKKLDAEGYIVYEKYRGIALTDIGKKMG
soluble fraction (log2): -2.17

HMATSNGEFVIPDGGLQFEELERSLLMQALKKSGGSQTGAARLLGLSRDTLRYRLEKFGIDAAAVRE
soluble fraction (log2): -0.39

HMATVTVPNLKGMTPSGAESALAELNLKGAVGDSVESNDVENGKVASQDQAAGSDAKEGDTITYHLSS
soluble fraction (log2): 0.235

HMATYETEVISGVNLRSAPNTSASVYRLLSKGEDIHVIQKVNDYWLKVQTKDGKIGYISASSKYTNYIA
soluble fraction (log2): -1.52

HMAVEETFTITWLDRDGTVLEVDENVLKGTMPSFDGHIPPHDGLEFKGWDPEVVPVEGDATYTATYKA
soluble fraction (log2): 0.508

HMAVENTGLSKRELEILQMMARGMSNQEIGDALFISLSTVKTHVASIFSKLQAVRRTQAVGIAKSLKII
soluble fraction (log2): -2.91

HMAVFSKKQIFDTAFALFESKGLEAITARNLGKALSSSPAPIYAHYSSITELKNELISVAKDR
soluble fraction (log2): -3.06

HMAVGDMISKLRTAANMSQEQFAELFGVTRQSVQKWENSFSVPELEKLIKISKYFDVSLDALVLRSDARVT
soluble fraction (log2): -2.5

HMAVLFFVKRGERILGPTRLADLFQHAASGRLRANDLVGESPKGPWLPARQLDELEDAWASSRDATEAAAA
soluble fraction (log2): -0.817

HMAVNQEFKNTINRIKYEYSLNQSQIADRLGVKKTYLSDMINGRVPYNETMNKKVNDVFPLPP
soluble fraction (log2): -0.169

HMAVPTHVEFPVVGLQRSGITSLEQAIATVPGVSKAVVNVSDNRIFVDYDPTRSKVSDLLEVVRGAGFTP
soluble fraction (log2): -0.043

HMAVQAESDIIKRAALLRNLGNTSMQLKNIDQAIDFYKQGIKLHPEDAELKYNLSQALRQKSQSNN
soluble fraction (log2): 0.055

HMAVQEDAGLAREDLPPEVQGLLQEREAARAAKDWGKSDALRRQLQDLGYAIKDTAQGMEIKRT
soluble fraction (log2): 0.817

HMAVRNTKQKQLVLSLLKNSGRPMTAGEIYRLAVQQYPNIAKSTVYRNLENLVSRGEVSQGMHQNGESFYS
soluble fraction (log2): -0.697

HMAVSPEEQKKRIIELFRNRNEVSFKEIFDLPTKGHFVITLLAVLDLARQQIVIMEQLENEGIIKFTKGA
soluble fraction (log2): 0.134

HMAVSSHAVKQRIRSLIQAEDPAAPLSDEALRLALSALGVDVSRRVIAKYRAELNIPSSSQRKK
soluble fraction (log2): -0.823

HMAVSVPDVMGLTYEEAYNKITAEGLLVNRLESYTGLVEKGRVISQLPVGGEPAAKGSTVNVNVSL
soluble fraction (log2): 0.466

HMAVTFPYTAYATDAVRLRERPSSSADVLAVIRKGDAVLVTGTDGNYAIVDYEGKRGYVVSSFIAT
soluble fraction (log2): -0.522

HMAVWRIKVNYIPGYGVNIWSSYKNGHFTGKRAMHGETYEVLETKKDQDGNTWYKLDDHQWIEGRYAINAK
soluble fraction (log2): -2.45
